The source of these data is PMC1751550.

The target in the test is full length Brn-3b GST fusion protein (UniProt Q63934). The test can be described thus: pull-down.
Sequence of UniProt Q63934 (Q63934 whole entry, the tested form may be a part): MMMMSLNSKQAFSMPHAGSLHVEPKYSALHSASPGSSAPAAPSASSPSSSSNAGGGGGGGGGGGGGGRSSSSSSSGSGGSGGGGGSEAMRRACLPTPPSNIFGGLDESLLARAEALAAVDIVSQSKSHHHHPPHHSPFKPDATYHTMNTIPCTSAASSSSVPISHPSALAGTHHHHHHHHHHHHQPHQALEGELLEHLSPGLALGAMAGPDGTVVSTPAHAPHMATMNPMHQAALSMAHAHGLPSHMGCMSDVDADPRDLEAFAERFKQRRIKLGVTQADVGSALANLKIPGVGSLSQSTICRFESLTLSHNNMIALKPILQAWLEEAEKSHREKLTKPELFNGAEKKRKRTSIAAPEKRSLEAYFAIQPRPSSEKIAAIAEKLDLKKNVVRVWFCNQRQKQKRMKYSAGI

For “in vitro translated estrogen receptor (from UniProt P03372 1-595)”, the percent of input retained was 15.2 % of input.
